From paper PMC10600506, “A potent and broad‐spectrum neutralizing nanobody for SARS‐CoV‐2 viruses, including all major Omicron strains” (MedComm, 2023)

Target: T1, SARS-CoV-2 Omicron BA.1 Spike receptor-binding domain (SARS-CoV-2 Omicron BA.1, strain, biotin on the Avi tag (for phage screening and BLI); not biotinylated for crystallisation)
T1 construct: Spike glycoprotein of SARS-CoV-2, Omicron BA.1, RBD1 (319-514) domain; also called RBD1; BA.1 RBD; not shown: Avi-tag, C-terminal, kept
Assay: BLI; biotinylated monovalent, […]; 25°C; 20 mM HEPES pH 7.4, 150 mM NaCl, 10 mg/mL BSA
Details: both partners purified

B1: Nb4 (VHH)
VHH: AVQLQASGGGFVQPGGSLRLSCAASGWAETFGHMGWFRQAPGKEREFVSAIDWWDTVHYYADSVKGRFTISRDNSKNTVYLQMNSLRAEDTATYYCAYWDMDYLQNSIPVDYWGQGTQVTVSS
notes: also called Nb4 monomer; monomeric Nb4
Work on B1 yielded a Kd of roughly 8 nM.
